Laboratory results published in patent US20190183976A1 (GPCR THERAPEUTICS, published 2019).

What was measured:
HRH1 = molecular target: T1, HRH1 (human, UniProt P35367 1-487); test: internalization inhibition assay, CXCR4-GFP U-2 OS cells transduced with GPCRx; CXCL12 and/or GPCRx antagonist
T1 construct: whole, on cells; Untagged: adenovirus-expressed in U-2 OS or MDA-MB-231 cells, or endogenous in MDA-MB-231 cells; also called Histamine Receptor H1
Experimental: (§1) Internalization of CXCR4-GFP was observed as GFP granules using IN Cell Analyzer 2500. Loss of GFP expression on the cell surface or appearance of GFP granules inside the cells were considered as CXCR4-GFP co-internalization.
(§2) CXCR4-GFP expressed U-2 OS cells were seeded at a density of 5000 cells per well in a black 96-well clear-bottom plate in 100 μl of McCoy's 5A medium supplemented with 10% FBS. On the following day, the cells were transduced with adenoviruses encoding GPCRx (30 MOI).

ADRB2 = molecular target: T2, ADRB2 (human, UniProt P07550 1-413); test: as above
T2 construct: whole, on cells; Untagged: adenovirus-expressed in U-2 OS or MDA-MB-231 cells, or endogenous in patient derived cells and PDX tissue; also called Adrenoceptor Beta 2; Ad-ADRB2
Experimental: as §1, §2

CHRM1 = molecular target: T3, CHRM1 (human, UniProt P11229 1-460); test: as above
T3 construct: whole, on cells; Untagged: adenovirus-expressed in U-2 OS or MDA-MB-231 cells, or endogenous in patient derived cells; also called Cholinergic Receptor Muscarinic 1
T3 sequence (looked up): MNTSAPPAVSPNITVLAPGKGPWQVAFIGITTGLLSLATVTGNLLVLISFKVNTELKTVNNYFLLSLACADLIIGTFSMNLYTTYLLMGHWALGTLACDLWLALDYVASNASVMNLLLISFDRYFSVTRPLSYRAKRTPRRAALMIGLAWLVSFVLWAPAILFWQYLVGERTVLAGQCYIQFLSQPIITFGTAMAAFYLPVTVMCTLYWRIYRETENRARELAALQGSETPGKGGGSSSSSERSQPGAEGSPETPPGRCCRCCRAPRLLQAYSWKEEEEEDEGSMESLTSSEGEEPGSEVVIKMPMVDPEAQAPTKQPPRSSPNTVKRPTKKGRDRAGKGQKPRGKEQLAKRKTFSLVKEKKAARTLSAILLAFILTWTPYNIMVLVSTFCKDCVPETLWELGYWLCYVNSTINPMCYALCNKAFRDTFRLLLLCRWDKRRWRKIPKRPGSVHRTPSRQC
Experimental: as §1, §2

NTSR1-VC [1] = molecular target: T4, NTSR1-VC (human, UniProt P30989 1-418); test: co-internalization of CXCR4-GFP after GPCRx agonist, U-2 OS cells
T4 construct: whole, on cells; Adenovirus-expressed in U-2 OS cells; not shown: VC155, C-terminal fragment of Venus
Experimental: (§3) Images were obtained before and 30 min after agonist stimulation, and analyzed using IN Cell Analyzer 2000.
(§4) U-2 OS cells were seeded at a density of 3000 cells per well in a black 96-well clear-bottom plate in 100 μl of McCoy's 5A medium supplemented with 10% FBS. […] Two days post-transduction, cells were stimulated with GPCRx agonists for 30 min and fixed with 2% formaldehyde.

HRH1-VC [2] = molecular target: T5, HRH1-VC (human, UniProt P35367 1-487); test: as above
T5 construct: whole, on cells; Adenovirus-expressed in U-2 OS cells; not shown: VC155, C-terminal fragment of Venus
Experimental: as §3, §4

MLNR-VC [3] = molecular target: T6, MLNR-VC (human, UniProt O43193 1-412); test: as above
T6 construct: whole, on cells; Adenovirus-expressed in U-2 OS cells; not shown: VC155, C-terminal fragment of Venus
Experimental: as §3, §4

TACR3-VC [4] = molecular target: T7, TACR3-VC (human, UniProt P29371 1-465); test: as above
T7 construct: whole, on cells; Adenovirus-expressed in U-2 OS cells; not shown: VC155, C-terminal fragment of Venus
T7 sequence (looked up): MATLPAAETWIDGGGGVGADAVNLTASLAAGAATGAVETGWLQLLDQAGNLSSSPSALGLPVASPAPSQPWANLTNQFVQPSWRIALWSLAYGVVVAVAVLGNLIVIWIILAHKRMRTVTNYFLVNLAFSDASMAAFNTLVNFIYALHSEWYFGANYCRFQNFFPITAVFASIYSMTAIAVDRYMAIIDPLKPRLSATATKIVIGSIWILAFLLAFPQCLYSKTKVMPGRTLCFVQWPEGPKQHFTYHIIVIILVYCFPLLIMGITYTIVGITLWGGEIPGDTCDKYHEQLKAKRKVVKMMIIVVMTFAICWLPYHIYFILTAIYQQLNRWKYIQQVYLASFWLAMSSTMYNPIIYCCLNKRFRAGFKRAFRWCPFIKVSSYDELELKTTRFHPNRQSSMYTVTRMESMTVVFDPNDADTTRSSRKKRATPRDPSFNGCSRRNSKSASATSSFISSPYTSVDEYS
Experimental: as §3, §4

ADRB2-VC [5] = molecular target: T8, ADRB2-VC (human, UniProt P07550 1-413); test: as above
T8 construct: whole, on cells; Adenovirus-expressed in U-2 OS cells; not shown: VC155, C-terminal fragment of Venus
Experimental: as §3, §4

APLNR-VC [6] = molecular target: T9, APLNR-VC (human, UniProt P35414 1-380); test: as above
T9 construct: whole, on cells; Adenovirus-expressed in U-2 OS cells; not shown: VC155, C-terminal fragment of Venus
T9 sequence (looked up): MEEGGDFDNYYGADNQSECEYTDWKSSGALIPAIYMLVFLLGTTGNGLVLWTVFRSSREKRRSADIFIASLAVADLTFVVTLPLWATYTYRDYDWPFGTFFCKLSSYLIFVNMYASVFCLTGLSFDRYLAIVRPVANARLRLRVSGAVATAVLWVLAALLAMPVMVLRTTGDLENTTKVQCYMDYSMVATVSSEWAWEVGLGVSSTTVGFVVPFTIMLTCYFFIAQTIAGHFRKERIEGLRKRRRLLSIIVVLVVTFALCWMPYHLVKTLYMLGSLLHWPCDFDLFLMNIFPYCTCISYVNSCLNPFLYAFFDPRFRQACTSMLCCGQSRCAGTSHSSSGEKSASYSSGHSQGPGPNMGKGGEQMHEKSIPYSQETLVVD
Experimental: as §3, §4

EDNRB-VC [7] = molecular target: T10, EDNRB-VC (human, UniProt P24530 27-442); test: as above
T10 construct: whole, on cells; Adenovirus-expressed in U-2 OS cells; not shown: VC155, C-terminal fragment of Venus
T10 sequence (looked up): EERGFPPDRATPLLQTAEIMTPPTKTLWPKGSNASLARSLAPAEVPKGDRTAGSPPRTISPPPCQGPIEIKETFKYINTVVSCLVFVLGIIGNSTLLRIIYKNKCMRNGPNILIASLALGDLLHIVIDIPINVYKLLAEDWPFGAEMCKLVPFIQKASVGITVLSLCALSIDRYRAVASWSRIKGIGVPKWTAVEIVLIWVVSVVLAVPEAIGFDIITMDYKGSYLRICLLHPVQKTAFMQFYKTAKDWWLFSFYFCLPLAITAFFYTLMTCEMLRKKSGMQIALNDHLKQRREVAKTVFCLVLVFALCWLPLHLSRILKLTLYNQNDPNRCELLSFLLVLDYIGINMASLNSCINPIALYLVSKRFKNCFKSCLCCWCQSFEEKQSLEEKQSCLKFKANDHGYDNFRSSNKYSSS
Experimental: as §3, §4

CHRM1-VC [8] = molecular target: T11, CHRM1-VC (human, UniProt P11229 1-460); test: as above
T11 construct: whole, on cells; Adenovirus-expressed in U-2 OS cells; not shown: VC155, C-terminal fragment of Venus
T11 sequence (looked up): T3 sequence (looked up)
Experimental: as §3, §4

SSTR2-VC [9] = molecular target: T12, SSTR2-VC (human, UniProt P30874 1-369); test: as above
T12 construct: whole, on cells; Adenovirus-expressed in U-2 OS cells; not shown: VC155, C-terminal fragment of Venus
Experimental: as §3, §4

CNR2-VC = molecular target: T13, CNR2-VC (human, UniProt P34972 1-360); test: BiFC and co-internalization assay, U-2 OS cells
T13 construct: whole, on cells; Adenovirus-expressed in U-2 OS cells; also called Cannabinoid Receptor 2-VC; CB2; not shown: VC155, C-terminal fragment of Venus

APLNR-VC [10] = molecular target: T9, APLNR-VC; test: BiFC and co-internalization assay, U-2 OS cells
SSTR2-VC [11] = molecular target: T12, SSTR2-VC; test: BiFC and co-internalization assay, U-2 OS cells
GCGR-VC = molecular target: T14, GCGR-VC (human, UniProt P47871 26-477); test: BiFC, U-2 OS cells co-expressing CXCR4-VN and GCGR-VC
T14 construct: whole, on cells; Adenovirus-expressed in U-2 OS cells; also called glucagon receptor-VC; not shown: VC155, C-terminal fragment of Venus
Experimental: (§5) Images of about 200 cells from each well were analyzed with Multi-target analysis software in IN Cell Developer ToolBox (GE Healthcare, Waukesha, Wis.). Cell boundary was marked based on Hoechst signal, and fluorescence intensity per cell was measured. Cells with fluorescence intensities higher than background level were considered as BiFC positive cells. […] Positive cells were determined, and positive cell count ratio (“BiFC score”) was calculated as (positive cells/total cells)×100 (see Table 4 below).

NTSR1-VC [12] = molecular target: T4, NTSR1-VC; test: BiFC, U-2 OS cells
Experimental: as §5

HRH1-VC [13] = molecular target: T5, HRH1-VC; test: BiFC, U-2 OS cells
Experimental: as §5

MLNR-VC [14] = molecular target: T6, MLNR-VC; test: BiFC, U-2 OS cells
Experimental: as §5

TACR3-VC [15] = molecular target: T7, TACR3-VC; test: BiFC, U-2 OS cells
Experimental: as §5

PTGER2-VC = molecular target: T15, PTGER2-VC (human, UniProt P43116 1-358); test: BiFC, U-2 OS cells
T15 construct: whole, on cells; Adenovirus-expressed in U-2 OS cells; not shown: VC155, C-terminal fragment of Venus
Experimental: as §5

ADRB2-VC [16] = molecular target: T8, ADRB2-VC; test: BiFC, U-2 OS cells
Experimental: as §5

EDNRB-VC [17] = molecular target: T10, EDNRB-VC; test: BiFC, U-2 OS cells
Experimental: as §5

CHRM1-VC [18] = molecular target: T11, CHRM1-VC; test: BiFC, U-2 OS cells
Experimental: as §5

T5 sequence (P35367 whole entry, the tested form may be a part): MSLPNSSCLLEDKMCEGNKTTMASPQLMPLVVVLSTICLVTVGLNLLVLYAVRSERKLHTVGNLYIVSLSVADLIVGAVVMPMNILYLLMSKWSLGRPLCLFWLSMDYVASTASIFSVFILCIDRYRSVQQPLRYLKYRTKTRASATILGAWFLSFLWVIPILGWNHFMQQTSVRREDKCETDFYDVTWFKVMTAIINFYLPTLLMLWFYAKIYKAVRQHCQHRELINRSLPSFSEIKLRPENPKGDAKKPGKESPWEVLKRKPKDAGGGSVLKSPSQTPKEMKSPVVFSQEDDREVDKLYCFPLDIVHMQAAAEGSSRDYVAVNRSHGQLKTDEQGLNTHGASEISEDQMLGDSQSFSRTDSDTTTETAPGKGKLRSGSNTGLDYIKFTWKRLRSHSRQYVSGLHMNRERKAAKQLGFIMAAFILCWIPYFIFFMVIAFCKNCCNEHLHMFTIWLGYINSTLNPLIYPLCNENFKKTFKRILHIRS
T4 sequence (P30989 whole entry, the tested form may be a part): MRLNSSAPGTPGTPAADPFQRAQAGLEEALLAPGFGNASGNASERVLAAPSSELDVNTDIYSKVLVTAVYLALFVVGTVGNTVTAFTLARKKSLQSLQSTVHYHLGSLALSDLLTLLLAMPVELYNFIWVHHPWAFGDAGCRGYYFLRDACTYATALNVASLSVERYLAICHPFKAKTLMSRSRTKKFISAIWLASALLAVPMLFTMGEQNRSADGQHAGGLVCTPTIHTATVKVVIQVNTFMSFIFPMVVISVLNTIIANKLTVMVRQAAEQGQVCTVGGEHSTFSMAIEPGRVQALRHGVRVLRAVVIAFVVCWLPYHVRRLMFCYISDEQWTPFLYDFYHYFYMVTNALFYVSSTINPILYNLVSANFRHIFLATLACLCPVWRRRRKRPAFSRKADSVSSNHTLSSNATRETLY
T6 sequence (O43193 whole entry, the tested form may be a part): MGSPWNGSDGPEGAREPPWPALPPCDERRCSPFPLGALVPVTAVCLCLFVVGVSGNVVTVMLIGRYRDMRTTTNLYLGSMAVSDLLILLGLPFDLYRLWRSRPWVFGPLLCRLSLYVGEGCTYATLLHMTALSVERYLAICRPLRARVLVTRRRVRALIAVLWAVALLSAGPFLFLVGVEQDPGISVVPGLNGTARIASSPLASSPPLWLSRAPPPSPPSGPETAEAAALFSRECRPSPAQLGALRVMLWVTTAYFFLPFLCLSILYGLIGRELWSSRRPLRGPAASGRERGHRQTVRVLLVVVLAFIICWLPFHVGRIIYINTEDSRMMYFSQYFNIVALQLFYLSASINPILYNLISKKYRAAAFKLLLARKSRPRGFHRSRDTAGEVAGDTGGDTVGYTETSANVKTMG
T12 sequence (P30874 whole entry, the tested form may be a part): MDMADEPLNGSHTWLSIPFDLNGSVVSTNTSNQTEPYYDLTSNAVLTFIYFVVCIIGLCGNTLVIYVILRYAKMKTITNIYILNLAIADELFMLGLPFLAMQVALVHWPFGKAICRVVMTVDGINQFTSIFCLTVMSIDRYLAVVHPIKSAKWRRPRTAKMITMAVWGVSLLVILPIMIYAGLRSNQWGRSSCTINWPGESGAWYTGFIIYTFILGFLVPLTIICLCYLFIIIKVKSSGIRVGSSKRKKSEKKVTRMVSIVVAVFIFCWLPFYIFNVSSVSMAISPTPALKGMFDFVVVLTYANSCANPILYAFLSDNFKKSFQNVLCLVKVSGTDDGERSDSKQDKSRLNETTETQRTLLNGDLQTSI
T13 sequence (P34972 whole entry, the tested form may be a part): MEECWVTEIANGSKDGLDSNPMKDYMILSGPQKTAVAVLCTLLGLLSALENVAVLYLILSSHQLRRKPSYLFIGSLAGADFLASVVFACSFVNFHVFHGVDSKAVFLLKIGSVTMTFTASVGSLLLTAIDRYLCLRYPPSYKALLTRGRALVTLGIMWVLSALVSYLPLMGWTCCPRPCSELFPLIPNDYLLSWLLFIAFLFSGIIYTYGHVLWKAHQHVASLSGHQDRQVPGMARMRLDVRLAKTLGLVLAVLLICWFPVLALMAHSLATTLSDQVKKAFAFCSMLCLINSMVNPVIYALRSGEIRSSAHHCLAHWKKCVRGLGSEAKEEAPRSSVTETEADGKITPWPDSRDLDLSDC
T1 sequence (P35367 whole entry): as the sequence (P35367 whole entry, the tested form may be a part) above
T14 sequence (P47871 26-477): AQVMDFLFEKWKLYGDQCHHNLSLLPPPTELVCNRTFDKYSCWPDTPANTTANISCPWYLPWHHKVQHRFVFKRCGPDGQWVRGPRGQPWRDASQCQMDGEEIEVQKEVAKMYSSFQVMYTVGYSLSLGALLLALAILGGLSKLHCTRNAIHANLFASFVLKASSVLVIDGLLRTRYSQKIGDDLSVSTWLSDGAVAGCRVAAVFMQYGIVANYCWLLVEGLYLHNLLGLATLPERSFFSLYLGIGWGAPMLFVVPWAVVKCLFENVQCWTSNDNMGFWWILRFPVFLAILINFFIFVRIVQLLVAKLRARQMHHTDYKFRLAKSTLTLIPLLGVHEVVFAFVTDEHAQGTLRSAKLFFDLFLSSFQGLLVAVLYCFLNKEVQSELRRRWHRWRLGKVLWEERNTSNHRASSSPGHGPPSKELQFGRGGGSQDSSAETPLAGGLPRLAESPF
T15 sequence (P43116 whole entry, the tested form may be a part): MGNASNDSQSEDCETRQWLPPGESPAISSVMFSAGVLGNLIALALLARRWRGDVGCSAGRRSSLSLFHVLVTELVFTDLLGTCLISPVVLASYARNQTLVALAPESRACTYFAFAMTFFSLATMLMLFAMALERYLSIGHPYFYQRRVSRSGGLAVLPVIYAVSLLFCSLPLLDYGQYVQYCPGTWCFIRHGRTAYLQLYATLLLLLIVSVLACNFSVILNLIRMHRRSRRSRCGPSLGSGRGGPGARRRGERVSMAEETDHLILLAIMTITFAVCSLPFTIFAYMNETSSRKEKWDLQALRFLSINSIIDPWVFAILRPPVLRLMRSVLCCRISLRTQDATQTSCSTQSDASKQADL

B1: CXCR4-EGFP (receptor, human, UniProt P61073 1-352, looked up)
chain: MEGISIYTSDNYTEEMGSGDYDSMKEPCFREENANFNKIFLPTIYSIIFLTGIVGNGLVILVMGYQKKLRSMTDKYRLHLSVADLLFVITLPFWAVDAVANWYFGNFLCKAVHVIYTVNLYSSVLILAFISLDRYLAIVHATNSQRPRKLLAEKVVYVGVWIPALLLTIPDFIFANVSEADDRYICDRFYPNDLWVVVFQFQHIMVGLILPGIVILSCYCIIISKLSHSKGHQKRKALKTTVILILAFFACWLPYYIGISIDSFILLEIIKQGCEFENTVHKWISITEALAFFHCCLNPILYAFLGAKFKTSAQHALTSVSRGSSLKILSKGKRGGHSSVSTESESSSFHSS
notes: whole, on cells; also called CXCR4-GFP; CXCR-EGFP; not shown: EGFP/GFP from the pAdHTS-GFPC vector
Does B1 bind (HRH1)?
Result: binds

Does B1 bind (ADRB2)?
Result: binds

Does B1 bind (CHRM1)?
Result: binds

Does B1 bind (NTSR1-VC [1])?
Result: binds

Does B1 bind (HRH1-VC [2])?
Result: binds

Does B1 bind (MLNR-VC [3])?
Result: binds

Does B1 bind (TACR3-VC [4])?
Result: binds

Does B1 bind (ADRB2-VC [5])?
Result: binds

Does B1 bind (APLNR-VC [6])?
Result: binds

Does B1 bind (EDNRB-VC [7])?
Result: binds

Does B1 bind (CHRM1-VC [8])?
Result: binds

Does B1 bind (SSTR2-VC [9])?
Result: binds

B2: CXCR4-VN (receptor, human, UniProt P61073 1-352, looked up)
chain: B1 chain
notes: whole, on cells; Adenovirus-expressed in U-2 OS cells; also called CXCR4 fused with N-terminal fragment of Venus; not shown: VNm10, N-terminal fragment of Venus (VN154 variant with L46F and L64F)
Does B2 bind (CNR2-VC)?
Result: binds

Does B2 bind (APLNR-VC [10])?
Result: binds

Does B2 bind (SSTR2-VC [11])?
Result: binds

Does B2 bind (GCGR-VC)?
Result: no binding

Does B2 bind (NTSR1-VC [12])?
Result: binds

Does B2 bind (HRH1-VC [13])?
Result: binds

Does B2 bind (MLNR-VC [14])?
Result: binds

Does B2 bind (TACR3-VC [15])?
Result: binds

Does B2 bind (PTGER2-VC)?
Result: binds

Does B2 bind (ADRB2-VC [16])?
Result: binds

Does B2 bind (EDNRB-VC [17])?
Result: binds

Does B2 bind (CHRM1-VC [18])?
Result: binds
